{
  "source": "patent US7169567B1",
  "about": "“Screening assay utilizing the PTH receptor” (The General Hospital Corporation, priority 1998, dated 2007)",
  "key": {"[1]": {"biological_target": "T1, intact rat PTH-1 receptor (rWT-HA) (Rattus norvegicus, UniProt P25961)", "T1 construct": "expressed in transfected cells; host or cells: COS-7, transient (DEAE-dextran), pCDNA-1 based plasmid", "T1 sequence (P25961 23-591 E93Y/N94P/K95Y/T99D/G100Y/S101A limits assumed)": "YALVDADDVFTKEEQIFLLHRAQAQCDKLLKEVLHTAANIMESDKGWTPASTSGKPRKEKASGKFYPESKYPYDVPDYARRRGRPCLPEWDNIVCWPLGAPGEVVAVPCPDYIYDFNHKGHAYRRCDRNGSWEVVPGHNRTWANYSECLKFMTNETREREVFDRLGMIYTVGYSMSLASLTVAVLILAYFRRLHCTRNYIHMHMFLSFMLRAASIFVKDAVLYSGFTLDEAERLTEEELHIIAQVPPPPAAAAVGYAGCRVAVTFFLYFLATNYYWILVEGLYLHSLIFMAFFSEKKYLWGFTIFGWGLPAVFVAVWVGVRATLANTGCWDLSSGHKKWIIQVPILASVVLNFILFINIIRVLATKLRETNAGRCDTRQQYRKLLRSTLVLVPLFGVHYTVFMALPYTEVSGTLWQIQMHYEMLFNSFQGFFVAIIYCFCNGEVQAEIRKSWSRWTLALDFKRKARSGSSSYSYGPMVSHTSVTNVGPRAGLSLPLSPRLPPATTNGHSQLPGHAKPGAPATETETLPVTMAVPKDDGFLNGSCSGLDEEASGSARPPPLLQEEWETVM", "assay": "cAMP response in COS-7 cells transiently transfected with intact rat PTH-1 receptor (rWT-HA)", "format": "cell-based", "conditions": "COS-7 cells expressing rWT-HA", "source_text": "FIG. 4. PTH Responses of Intact and Truncated PTH-1 Receptors in COS-7 Cells. Shown at the top are schematics of the intact (A) and truncated (B) rat PTH-1 receptors used for transient transfection of COS-7 cells, and subsequent cAMP response assays. The conserved extracellular cysteine residues are depicted as open circles and numbered according to sequence position, and the nine amino acids of the epitope tag (HA) in rWT-HA are shaded. The tics at residue 26 and 181 indicate the endpoints of the deletion in rΔNt. Based on the predicted signal peptide cleavage site at Ala-22, residues 23–25 in rΔNt are joined to residue 182. The cAMP responses of COS-7 cells expressing the intact receptor (C) and rΔNt (D) to rPTH(1–34) (J) or rPTH(1–14) (C) are also shown. The graphs show combined data (mean±s.e.m.) from five separate experiments, each performed in duplicate.\nFIG. 5. Alanine-scan of PTH(1–14) with Intact and Truncated PTH Receptors. COS-7 cells transiently transfected with rWT-HA (A) or rCE I-G (B) were treated with 100 mM of native rat PTH(1–14) or 100 mM of a rPTH(1–14) analog containing a single alanine substitution for 1 h at 21° C., and the resulting intracellular cAMP levels were measured by RIA. The amino acid substitutions are indicated on the axis labels. Peptides were tested in duplicate, and a single experiment representative of three others is shown. […]"}, "[2]": {"system": "PTH-1 receptor (intact or truncated receptors used in this study)", "assay": "Competition and direct binding assays (radioiodinated rPTH(1–34) tracer or radiolabeled PTH(1–14) analog)", "conditions": "unlabeled peptide; radioiodinated rPTH(1–34) as tracer ligand; data not shown", "source_text": "This reduced potency is not surprising, given that the PTH(1–14) peptide lacks important receptor-binding residues located in the PTH(15–34) region in the PTH(15–34) domain (Nussbaum, S. R., et al., J. Biol. Chem. 255:10183–10187 (1980); Gardella, T. J., et al., Endrocrinology 132(5):2024–2030 (1993); Caulfield, M. P., et al., Endocrinology 127:83–87 (1990); and Abou-Samra, A.-B., et al., Endocrinology 125:2215–2217 (1989))."}},
  "note": "Where no end group is shown, it is not given here.",
  "data": [
    {"substance": "PTH(1–14): Amino-terminal peptide fragment based on the rat PTH sequence, residues 1–14, C-terminally amidated (AVSEIQLMHNLGKH-NH2)", "values": [
      {"measurement": "potency relative to PTH(1–34) with rWT-HA", "setting": "[1]", "value": "four to five orders of magnitude weaker"},
      {"measurement": "binding in standard competition binding assays", "setting": "[2]", "value": "bound too weakly to permit detection"}
    ]}
  ]
}
